Measurements reported in patent US20220332764A1, “T CELL EPITOPES OF HCMV AND USES OF THEREOF” (EBERHARD KARLS UNIVERSITÄT TÜBINGEN, priority 2019, published 2022).

Legend:
Test in all cases: cell-based or functional assay
HLA-B*07:02 (human) = target: HLA-B*07:02 (human)
HLA-B*08:01 (human) = target: HLA-B*08:01 (human)
HLA-B*51:01 (human) = target: HLA-B*51:01 (human)

LPHERHREL (modifications not checked) [UL34 180-188 …] was tested, and the % Positive donors (after 12 days of stimulation), IFNγ ELISpot (HLA-B*07:02 (human)) was 25% and the % Positive donors (after 12 days of stimulation), IFNγ ELISpot (HLA-B*08:01 (human)) was 90.9%.

In the case of LPYPRGYTL (modifications not checked) [UL26 61-69 …], the % Positive donors (after 12 days of stimulation), IFNγ ELISpot (HLA-B*51:01 (human)) is reported as 62.5% and the % Positive donors (after 12 days of stimulation), IFNγ ELISpot (HLA-B*08:01 (human)) is reported as 68.8%.
